For one substance, reduction of IFN-γ production of human E183 CTL after 3 h with T-REx CHO cells expressing the mutant antigen results are on record in article PMC6045629.

The target of this assay is sc E183-HLA-A2 A245V (HBV | human).

As for “CD8 coreceptor (from UniProt P01732 22-235)”, the reduction of IFN-γ production of human E183 CTL after 3 h with T-REx CHO cells expressing the mutant antigen came to 25%.
